In publication PMC7255614 one finds Kd, koff and kon data, which are given here for two substances.

Assay [1] concerns the target fibronectin (UniProt P02751). The experiment in a line: ELISA; wells coated with 10 μg/ml purified fibronectin in 0.05 M Na2CO3 pH 9.0; 0.03125-2 μM GST or GST-tagged OspC variants, 1 hr at ambient temperature; goat anti-GST and HRP-conjugated anti-goat IgG; estimated KD from a fit of OD405.
Assay [2] addresses fibronectin (UniProt P02751). The experiment in a line: SPR; Biacore 3000; fibronectin on a CM5 chip; 0-500 nM untagged OspC variants injected at 10 μl/min, 25°C; 1:1 Langmuir model; KD from the average koff divided by kon of each run. On the technique in general: SPR reads the build-up and loss of mass on a sensor chip optically.

fibronectin, sequence (P02751 32-2477): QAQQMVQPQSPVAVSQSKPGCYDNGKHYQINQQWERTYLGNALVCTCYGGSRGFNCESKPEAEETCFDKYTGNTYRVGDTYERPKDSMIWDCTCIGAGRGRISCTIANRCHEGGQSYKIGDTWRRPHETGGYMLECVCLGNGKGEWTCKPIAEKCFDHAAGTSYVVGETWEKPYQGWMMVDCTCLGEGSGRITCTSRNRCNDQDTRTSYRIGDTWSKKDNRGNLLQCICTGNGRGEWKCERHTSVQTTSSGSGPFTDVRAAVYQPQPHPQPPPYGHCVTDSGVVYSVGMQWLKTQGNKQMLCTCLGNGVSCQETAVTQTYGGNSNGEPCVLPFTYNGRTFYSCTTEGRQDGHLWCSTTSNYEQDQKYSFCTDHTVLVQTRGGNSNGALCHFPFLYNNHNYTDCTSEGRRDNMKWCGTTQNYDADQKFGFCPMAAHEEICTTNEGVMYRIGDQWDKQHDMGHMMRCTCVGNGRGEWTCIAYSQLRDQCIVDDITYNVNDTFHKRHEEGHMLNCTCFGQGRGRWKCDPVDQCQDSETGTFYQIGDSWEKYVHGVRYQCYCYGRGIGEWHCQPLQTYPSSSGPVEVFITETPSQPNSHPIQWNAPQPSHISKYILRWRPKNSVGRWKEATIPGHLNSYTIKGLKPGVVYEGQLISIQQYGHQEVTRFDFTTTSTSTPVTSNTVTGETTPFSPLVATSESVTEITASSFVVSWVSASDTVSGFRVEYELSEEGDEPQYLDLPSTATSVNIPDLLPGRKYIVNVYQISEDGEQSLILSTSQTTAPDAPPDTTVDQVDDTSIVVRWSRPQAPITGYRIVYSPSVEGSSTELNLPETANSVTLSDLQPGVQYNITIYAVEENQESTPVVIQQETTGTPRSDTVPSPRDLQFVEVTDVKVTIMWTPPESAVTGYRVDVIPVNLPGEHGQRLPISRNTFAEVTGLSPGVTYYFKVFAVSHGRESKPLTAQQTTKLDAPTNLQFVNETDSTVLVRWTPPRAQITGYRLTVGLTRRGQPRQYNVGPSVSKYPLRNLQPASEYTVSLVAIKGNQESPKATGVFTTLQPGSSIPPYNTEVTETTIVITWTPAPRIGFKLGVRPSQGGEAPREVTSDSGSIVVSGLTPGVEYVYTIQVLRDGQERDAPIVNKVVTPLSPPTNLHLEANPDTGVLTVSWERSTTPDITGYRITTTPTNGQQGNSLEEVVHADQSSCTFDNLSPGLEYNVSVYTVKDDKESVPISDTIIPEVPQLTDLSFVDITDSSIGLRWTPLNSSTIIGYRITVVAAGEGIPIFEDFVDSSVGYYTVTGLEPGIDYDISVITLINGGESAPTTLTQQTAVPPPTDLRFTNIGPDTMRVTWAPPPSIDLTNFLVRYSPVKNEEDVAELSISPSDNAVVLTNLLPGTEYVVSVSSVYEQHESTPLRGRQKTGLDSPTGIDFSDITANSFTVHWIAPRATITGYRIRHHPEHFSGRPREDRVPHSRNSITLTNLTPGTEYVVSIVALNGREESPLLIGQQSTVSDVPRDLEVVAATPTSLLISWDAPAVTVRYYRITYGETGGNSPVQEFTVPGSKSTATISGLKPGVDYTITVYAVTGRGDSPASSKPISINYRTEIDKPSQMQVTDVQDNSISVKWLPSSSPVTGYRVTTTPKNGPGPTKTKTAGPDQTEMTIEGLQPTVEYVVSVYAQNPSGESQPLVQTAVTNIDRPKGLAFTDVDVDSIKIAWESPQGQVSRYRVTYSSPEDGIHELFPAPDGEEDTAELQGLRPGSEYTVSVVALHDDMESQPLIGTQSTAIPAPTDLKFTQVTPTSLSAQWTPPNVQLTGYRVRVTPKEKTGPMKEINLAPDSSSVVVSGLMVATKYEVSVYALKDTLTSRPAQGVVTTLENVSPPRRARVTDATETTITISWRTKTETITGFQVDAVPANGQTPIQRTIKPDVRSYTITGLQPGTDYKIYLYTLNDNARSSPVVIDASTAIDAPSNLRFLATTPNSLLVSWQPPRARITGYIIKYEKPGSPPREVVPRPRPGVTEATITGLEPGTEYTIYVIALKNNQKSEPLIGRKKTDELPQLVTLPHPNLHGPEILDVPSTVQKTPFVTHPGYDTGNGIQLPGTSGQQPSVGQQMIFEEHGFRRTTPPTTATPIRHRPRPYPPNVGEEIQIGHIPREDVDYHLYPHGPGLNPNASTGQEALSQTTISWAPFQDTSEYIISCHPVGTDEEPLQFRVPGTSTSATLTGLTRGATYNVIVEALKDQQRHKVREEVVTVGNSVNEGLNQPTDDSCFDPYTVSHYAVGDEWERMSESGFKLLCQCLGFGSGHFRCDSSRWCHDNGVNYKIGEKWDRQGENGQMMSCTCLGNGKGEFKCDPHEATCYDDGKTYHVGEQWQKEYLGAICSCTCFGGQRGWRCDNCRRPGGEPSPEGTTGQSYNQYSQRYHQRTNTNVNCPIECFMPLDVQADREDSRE

“GST-OspC_(N40-D10/E9) (natural protein; other documents disagree on this pair)”: the Kd with fibronectin [1] was 0.35 µM.

Regarding OspC297, untagged (natural protein), in the assay with fibronectin [2], the Kd is 1.75 µM, the off-rate constant (koff) is 0.06 s⁻¹ and the kon stood at 36800 M⁻¹ s⁻¹.

As usually defined, the Kd is the equilibrium constant for the complex coming apart. For orientation: koff means the first-order rate constant of dissociation. As usually defined, the kon is a measure of how fast the partners come together.
